In general, EC50 (read off the curve) refers to the midpoint of the concentration-response curve.

Where two headings read alike, the source gives them in different places.

The values that follow come from patent publication US20230165967A1 (TAE LIFE SCIENCES, published 2023).

For experiment [1], the target named is T1, recombinant human FcRn (Sino Biological) (human, UniProt P55899 24-297; P61769 21-119). Kind of experiment: ELISA at pH 6.0: plate coated with recombinant human FcRn, antibody titrated, HRP goat anti-human Fc, OD650.
For experiment [2], the target named is T2, recombinant human soluble ECD of CD64/FCGRIA (human, UniProt P12314 16-292).
T2 construct: extracellular domain; also called FcγRI
Nature of the experiment: ELISA: plate coated with recombinant human CD64/FCGRIA ECD, antibody titrated, HRP goat anti-human Fc, OD650. A general note: An ELISA detects its analyte on a solid surface through an enzyme-linked reagent.

In experiment [3] the target is T3, recombinant human soluble ECD of hCD16a/FCGRIIIA (human, UniProt P08637 17-208).
T3 construct: extracellular domain; also called FcγRIIIa
Kind of experiment: ELISA: plate coated with recombinant human CD16a/FCGRIIIA ECD, antibody titrated 0.005-80 ug/ml, HRP goat anti-human Fc, OD650.

In experiment [4] the target is T1, recombinant human FcRn (Sino Biological). Kind of experiment: ELISA at pH 6.0: plate coated with recombinant human FcRn, antibody titrated, HRP goat anti-human Fc, OD650. The source holds these as a separate data set.
Experiment [5] deals with T2, recombinant human soluble ECD of …. Kind of experiment: ELISA: plate coated with recombinant human CD64/FCGRIA ECD, antibody titrated, HRP goat anti-human Fc, OD650. The source holds these as a separate data set.
The target of experiment [6] is T4, FcγRIIa (CD32) (Sino Biological, cat #10374-H08H) (UniProt P12318 34-218).
T4 sequence (looked up): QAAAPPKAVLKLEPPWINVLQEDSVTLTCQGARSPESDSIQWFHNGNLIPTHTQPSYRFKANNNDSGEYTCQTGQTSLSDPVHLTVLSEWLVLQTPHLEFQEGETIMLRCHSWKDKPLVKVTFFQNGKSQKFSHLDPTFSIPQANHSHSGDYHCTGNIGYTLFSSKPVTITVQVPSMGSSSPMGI
Nature of the experiment: Sandwich ELISA: anti-His capture of His-tagged FcγRIIA mixed with titrated antibody, HRP goat anti-human IgG Fc, OD650.

Experiment [7] addresses T5, recombinant human CDH3 full-length (human, UniProt P22223 25-829, limits assumed).
T5 construct: plate-coated recombinant protein, not on cells
Nature of the experiment: ELISA: plate coated with recombinant human full-length CDH3, antibody titrated 0.0003-20 nM, HRP goat anti-human Fc, OD650.

The target of experiment [8] is T3, recombinant human soluble ECD of …. Nature of the experiment: ELISA: plate coated with recombinant human CD16a/FCGRIIIA ECD, antibody titrated 0.005-80 ug/ml, HRP goat anti-human Fc, OD650. The source holds these as a separate data set.
In experiment [9] the target is T6, human C1q (sigma Cat #C1740) (human, UniProt P02745 23-245; P02746 28-253; P02747 29-245). Nature of the experiment: ELISA: plate coated with antibody at 1 ug/ml, human C1q titrated 0.625-40 ug/ml, rabbit anti-human C1q then HRP goat anti-rabbit, OD650.
Experiment [10] deals with T1, recombinant human FcRn (Sino Biological). Nature of the experiment: ELISA at pH 6.0: plate coated with recombinant human FcRn, antibody titrated, HRP goat anti-human Fc, OD650. The source holds these as a separate data set.
The target of experiment [11] is T2, recombinant human soluble ECD of …. Kind of experiment: ELISA: plate coated with recombinant human CD64/FCGRIA ECD, antibody titrated, HRP goat anti-human Fc, OD650. This is another data set of the same source.
The target in experiment [12] is T7, recombinant human soluble extracellular domain (ECD) of Trop2 (human, UniProt P09758 27-274).
T7 construct: extracellular domain; Bought protein
T7 sequence (looked up): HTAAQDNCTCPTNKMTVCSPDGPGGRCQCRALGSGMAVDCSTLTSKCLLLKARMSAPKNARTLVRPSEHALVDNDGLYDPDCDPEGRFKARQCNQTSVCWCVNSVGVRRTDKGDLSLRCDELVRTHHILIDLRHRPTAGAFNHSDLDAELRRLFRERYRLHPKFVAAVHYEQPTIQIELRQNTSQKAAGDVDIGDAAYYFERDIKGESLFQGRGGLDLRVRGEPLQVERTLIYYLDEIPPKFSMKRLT
Nature of the experiment: ELISA: plate coated with recombinant human Trop2 ECD, antibody titrated 0.0003-20 nM, HRP goat anti-human Fc, OD650.

The target in experiment [13] is T4, FcγRIIa (CD32) (Sino Biological, cat …). Nature of the experiment: Sandwich ELISA: anti-His capture of His-tagged FcγRIIA mixed with titrated antibody, HRP goat anti-human IgG Fc, OD650. This is another data set of the same source.
Experiment [14] concerns the target T3, recombinant human soluble ECD of …. Nature of the experiment: ELISA: plate coated with recombinant human CD16a/FCGRIIIA ECD, antibody titrated 0.005-80 ug/ml, HRP goat anti-human Fc, OD650. The source holds these as a separate data set.
Experiment [15] has as its target T6, human C1q (sigma Cat #C1740). Kind of experiment: ELISA: plate coated with antibody at 1 ug/ml, human C1q titrated 0.625-40 ug/ml, rabbit anti-human C1q then HRP goat anti-rabbit, OD650. This is another data set of the same source.

T6 sequence (P02745 23-245 limits assumed, chain 1 of 3): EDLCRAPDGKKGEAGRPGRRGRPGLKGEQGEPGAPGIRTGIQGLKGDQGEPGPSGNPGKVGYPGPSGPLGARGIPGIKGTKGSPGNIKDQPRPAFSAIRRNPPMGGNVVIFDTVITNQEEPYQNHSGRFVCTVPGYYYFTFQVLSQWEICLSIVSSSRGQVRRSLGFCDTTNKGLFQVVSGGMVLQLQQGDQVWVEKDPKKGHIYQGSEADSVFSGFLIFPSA
T6 sequence (P02746 28-253 limits assumed, chain 2 of 3): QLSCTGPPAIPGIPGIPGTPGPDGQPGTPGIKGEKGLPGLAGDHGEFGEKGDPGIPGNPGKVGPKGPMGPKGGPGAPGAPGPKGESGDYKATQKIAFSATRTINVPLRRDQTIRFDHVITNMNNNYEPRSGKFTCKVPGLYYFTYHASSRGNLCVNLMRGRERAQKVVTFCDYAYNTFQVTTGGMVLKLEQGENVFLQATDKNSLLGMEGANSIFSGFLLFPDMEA
T6 sequence (P02747 29-245 limits assumed, chain 3 of 3): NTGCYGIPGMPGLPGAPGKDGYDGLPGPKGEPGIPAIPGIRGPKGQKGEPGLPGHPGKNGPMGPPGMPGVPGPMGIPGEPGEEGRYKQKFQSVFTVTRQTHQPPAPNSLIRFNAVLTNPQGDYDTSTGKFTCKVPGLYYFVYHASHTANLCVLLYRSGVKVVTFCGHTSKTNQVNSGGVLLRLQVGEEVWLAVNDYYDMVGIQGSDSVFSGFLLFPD
T1 sequence (P55899 24-297 limits assumed, chain 1 of 2): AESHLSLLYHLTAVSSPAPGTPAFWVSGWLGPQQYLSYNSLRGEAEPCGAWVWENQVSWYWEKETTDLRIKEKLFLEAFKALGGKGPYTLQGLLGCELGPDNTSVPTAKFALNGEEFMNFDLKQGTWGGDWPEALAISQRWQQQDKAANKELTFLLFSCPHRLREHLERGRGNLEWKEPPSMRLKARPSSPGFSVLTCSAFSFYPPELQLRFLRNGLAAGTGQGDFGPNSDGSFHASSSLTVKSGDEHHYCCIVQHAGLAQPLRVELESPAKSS
T1 sequence (P61769 21-119 limits assumed, chain 2 of 2): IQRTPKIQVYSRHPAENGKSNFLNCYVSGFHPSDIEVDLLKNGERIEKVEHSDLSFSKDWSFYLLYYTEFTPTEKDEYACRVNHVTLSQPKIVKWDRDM
T3 sequence (P08637 17-208): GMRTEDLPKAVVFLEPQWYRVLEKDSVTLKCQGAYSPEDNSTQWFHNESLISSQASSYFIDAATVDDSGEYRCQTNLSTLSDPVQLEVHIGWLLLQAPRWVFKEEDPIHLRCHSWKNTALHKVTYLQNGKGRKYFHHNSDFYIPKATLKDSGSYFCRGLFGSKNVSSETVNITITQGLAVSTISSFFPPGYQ
T2 sequence (P12314 16-292): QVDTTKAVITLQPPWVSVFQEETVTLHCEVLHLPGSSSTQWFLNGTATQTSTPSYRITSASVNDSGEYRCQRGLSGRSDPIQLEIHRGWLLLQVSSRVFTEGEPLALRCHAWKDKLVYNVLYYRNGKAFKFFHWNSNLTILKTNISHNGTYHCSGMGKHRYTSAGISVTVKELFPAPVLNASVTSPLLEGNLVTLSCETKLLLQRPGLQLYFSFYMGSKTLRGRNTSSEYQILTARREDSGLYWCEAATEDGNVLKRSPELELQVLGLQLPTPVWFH

B1: Anti-EGFR Ab No. 3 Wild Type (antibody, human IgG1)
heavy: not shown
light: DIQMTQSPSSLSASVGDRVTITCRSSQNIVHSNGNTYLDWYQQTPGKAPKLLIYKVSNRFSGVPSRFSGSGSGTDFTFTISSLQPEDIATYYCFQYSHVPWTFGQGTKLQITREVAAPSVFIFPPSDEQLKSGTASVVCLLNNFYPREAKVQWKVDNALQSGNSQESVTEQDSKDSTYSLSSTLTLSKADYEKHKVYACEVTHQGLSSPVTKSFNRGEC
notes: human IgG1 constant region; also called Anti-EGFR Mab No. 3; anti-EGFR mAb No. 3
With B1, the binding result in experiment [1] is “binds”. Further, the “EC50 (read off the curve)” value was about 0.05 µg/mL in [2] and about 2 µg/mL in experiment [3].

B2: Anti-EGFR Ab No. 3 L328C (antibody, human IgG1)
heavy: not shown
light: B1 light
notes: Fc variant; wild-type light chain, this heavy chain reads VDKRV where the wild type reads VDKKV; also called Anti-EGFR Mab No. 3 single mutant; single mutation L328C
B2: the “EC50 (read off the curve)” value in experiment [2] was about 0.1 µg/mL.

B3: Anti-EGFR Ab No. 3 L234A, L235A (antibody, human IgG1, L234A L235A)
heavy: not shown
light: B1 light
notes: Fc variant; wild-type light chain; also called Anti-EGFR Mab No. 3 double mutant; double mutation L234A and L235A
For B3, the binding result in experiment [1] was “binds”. Moreover, the concentration giving a half-maximal response (EC50 (read off the curve)) in [2] is about 4 µg/mL.

B4: Anti-EGFR Ab No. 3 L234A, L235A, L328C (antibody, human IgG1, L234A L235A)
heavy: QVQLQQSGAEVKKPGSSVKVSCKASGYTFTNYYIYWVRQAPGQGLEWIGGINPTSGGSNFNEKFKTRVTITADESSTTAYMELSSLRSEDTAFYFCTRQGLWFDSDGRGFDFWGQGTTVTVSSASTKGPSVFPLAPSSKSTSGGTAALGCLVKDYFPEPVTVSWNSGALTSGVHTFPAVLQSSGLYSLSSVVTVPSSSLGTQTYICNVNHKPSNTKVDKRVEPKSCDKTHTCPPCPAPEAAGGPSVFLFPPKPKDTLMISRTPEVTCVVVDVSHEDPEVKFNWYVDGVEVHNAKTKPREEQYNSTYRVVSVLTVLHQDWLNGKEYKCKVSNKACPAPIEKTISKAKGQPREPQVYTLPPSREEMTKNQVSLTCLVKGFYPSDIAVEWESNGQPENNYKTTPPVLDSDGSFFLYSKLTVDKSRWQQGNVFSCSVMHEALHNHYTQKSLSLSPGK
light: B1 light
notes: Fc variant; wild-type light chain, this heavy chain reads VDKRV where the wild type reads VDKKV; also called Anti-EGFR Mab No. 3 triple mutant; triple mutation L234A, L235A, and L328C
Regarding B4, the binding result in experiment [3] was “no binding (tested: 80 ug/mL)”.

B5: Anti-CDH3 Ab L234A, L235A, L328C (antibody, human IgG1, kappa, L234A L235A)
heavy: QVQLQQSGPGLVKPSQTLSLTCAISGDSVSSQSAAWNWIRQSPSRGLEWLGRIYYRSKWYNDYALSVKSRITINPDTSKNQFSLQLNSVTPEDTAVYYCARGEGYGREGFAIWGQGTLVTVSSASTKGPSVFPLAPSSKSTSGGTAALGCLVKDYFPEPVTVSWNSGALTSGVHTFPAVLQSSGLYSLSSVVTVPSSSLGTQTYICNVNHKPSNTKVDKRVEPKSCDKTHTCPPCPAPEAAGGPSVFLFPPKPKDTLMISRTPEVTCVVVDVSHEDPEVKFNWYVDGVEVHNAKTKPREEQYNSTYRVVSVLTVLHQDWLNGKEYKCKVSNKACPAPIEKTISKAKGQPREPQVYTLPPSREEMTKNQVSLTCLVKGFYPSDIAVEWESNGQPENNYKTTPPVLDSDGSFFLYSKLTVDKSRWQQGNVFSCSVMHEALHNHYTQKSLSLSPGK
light: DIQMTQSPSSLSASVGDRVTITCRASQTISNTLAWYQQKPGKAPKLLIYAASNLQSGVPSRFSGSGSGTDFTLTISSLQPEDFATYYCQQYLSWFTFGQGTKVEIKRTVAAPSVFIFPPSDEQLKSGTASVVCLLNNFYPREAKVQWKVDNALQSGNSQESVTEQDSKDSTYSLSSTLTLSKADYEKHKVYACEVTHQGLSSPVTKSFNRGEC
notes: Fc variant; wild-type light chain; also called Anti-CDH3 Mab triple mutant; triple mutation L234A, L235A, and L328C
As for B5, the binding result is “binds” in experiment [4]; “binds” in [5]; “binds” in experiment [6]; “no binding (tested: 80 ug/ml)” in experiment [8]; “binds” in experiment [9]. For the same molecule, the “EC50 (read off the curve)” value in experiment [7] is about 0.04 nM.

B6: Anti-Trop2 Ab Wild Type (antibody, human IgG1, kappa)
heavy: not shown
light: DIQLTQSPSSLSASVGDRVSITCKASQDVSIAVAWYQQKPGKAPKLLIYSASYRYTGVPDRFSGSGSGTDFTLTISSLQPEDFAVYYCQQHYITPLTFGAGTKVEIKRTVAAPSVFIFPPSDEQLKSGTASVVCLLNNFYPREAKVQWKVDNALQSGNSQESVTEQDSKDSTYSLSSTLTLSKADYEKHKVYACEVTHQGLSSPVTKSFNRGEC
notes: human IgG1 constant region; also called Anti-Trop2 Mab; anti-TROP2 mAb
In the case of B6, the binding result in experiment [10], in experiment [13] and in experiment [15] was “binds” in each case. For the same molecule, the “EC50 (read off the curve)” value in experiment [11] was about 0.08 µg/mL; in [12], about 0.06 nM; in experiment [14] it was about 2 µg/mL.

B7: Anti-Trop2 Ab L234A, L235A, L328C (antibody, human IgG1, kappa, L234A L235A)
heavy: QVQLQQSGSELKKPGASVKVSCKASGYTFTNYGMNWVKQAPGQGLKWMGWINTYTGEPTYTDDFKGRFAFSLDTSVSTAYLQISSLKADDTAVYFCARGGFGSSYWYFDVWGQGSLVTVSSASTKGPSVFPLAPSSKSTSGGTAALGCLVKDYFPEPVTVSWNSGALTSGVHTFPAVLQSSGLYSLSSVVTVPSSSLGTQTYICNVNHKPSNTKVDKRVEPKSCDKTHTCPPCPAPEAAGGPSVFLFPPKPKDTLMISRTPEVTCVVVDVSHEDPEVKFNWYVDGVEVHNAKTKPREEQYNSTYRVVSVLTVLHQDWLNGKEYKCKVSNKACPAPIEKTISKAKGQPREPQVYTLPPSREEMTKNQVSLTCLVKGFYPSDIAVEWESNGQPENNYKTTPPVLDSDGSFFLYSKLTVDKSRWQQGNVFSCSVMHEALHNHYTQKSLSLSPGK
light: B6 light
notes: Fc variant; wild-type light chain; also called Anti-Trop2 Mab triple mutant; triple mutation L234A, L235A, and L328C
Regarding B7, the binding result was “binds” in experiment [10]; “no binding (tested: 30 ug/ml)” in experiment [11]; “binds” in experiment [13]; “no binding (tested: 80 ug/ml)” in experiment [14]; “binds” in experiment [15]. Moreover, the “EC50 (read off the curve)” value in experiment [12] was about 0.06 nM.

B8: Anti-Trop2 Ab L234A, L235A (antibody, human IgG1, kappa, L234A L235A)
heavy: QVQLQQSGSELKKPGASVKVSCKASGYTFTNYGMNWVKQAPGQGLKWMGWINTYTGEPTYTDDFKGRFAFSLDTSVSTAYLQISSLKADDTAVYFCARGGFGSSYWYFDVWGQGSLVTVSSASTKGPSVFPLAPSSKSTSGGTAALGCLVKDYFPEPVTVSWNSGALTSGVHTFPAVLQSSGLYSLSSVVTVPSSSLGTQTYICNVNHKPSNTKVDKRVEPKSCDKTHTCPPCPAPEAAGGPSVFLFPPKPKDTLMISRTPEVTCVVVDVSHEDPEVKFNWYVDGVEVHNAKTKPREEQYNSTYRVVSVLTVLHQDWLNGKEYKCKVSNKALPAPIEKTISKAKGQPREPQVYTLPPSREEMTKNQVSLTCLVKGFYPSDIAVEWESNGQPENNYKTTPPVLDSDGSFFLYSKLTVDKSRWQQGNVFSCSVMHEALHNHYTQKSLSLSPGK
light: B6 light
notes: Fc variant; wild-type light chain; also called Anti-Trop2 Mab double mutant; double mutation L234A and L235A
Regarding B8, the “EC50 (read off the curve)” value is about 1 µg/mL in experiment [10] and about 0.06 nM in [12]. Further, the binding result in experiment [11], in experiment [13] and in [15] was “binds” each time.

B9: Anti-Trop2 Ab L328C (antibody, human IgG1, kappa)
heavy: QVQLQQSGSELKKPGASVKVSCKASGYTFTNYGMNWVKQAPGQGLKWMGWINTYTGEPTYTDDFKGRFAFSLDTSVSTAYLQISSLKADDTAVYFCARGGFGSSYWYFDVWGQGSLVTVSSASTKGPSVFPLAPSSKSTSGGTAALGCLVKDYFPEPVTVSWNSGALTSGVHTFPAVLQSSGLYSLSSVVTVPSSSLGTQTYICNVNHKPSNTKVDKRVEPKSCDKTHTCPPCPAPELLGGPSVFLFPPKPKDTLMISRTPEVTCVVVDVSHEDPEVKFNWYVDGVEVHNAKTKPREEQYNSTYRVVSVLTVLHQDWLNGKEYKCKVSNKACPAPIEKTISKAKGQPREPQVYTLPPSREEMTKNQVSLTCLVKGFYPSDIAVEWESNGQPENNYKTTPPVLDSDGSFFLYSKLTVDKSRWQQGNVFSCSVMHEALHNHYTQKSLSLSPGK
light: B6 light
notes: Fc variant; wild-type light chain; also called Anti-Trop2 Mab single mutant; single mutation L328C
As for B9, the binding result in [10], in experiment [13] and in [15] was “binds” in each case. The “EC50 (read off the curve)” value in experiment [11] is about 0.2 µg/mL; in [12], about 0.06 nM.
